According to article PMC7736850, “Hemistepsin A suppresses colorectal cancer growth through inhibiting pyruvate dehydrogenase kinase activity” (Scientific Reports, 2020):

Assays:
[1] = molecular target: T1, pyruvate dehydrogenase kinase (PDK) 1 (Homo sapiens, UniProt Q15118); assay: isothermal titration calorimetry (ITC); format: binding
T1 construct: gene PDK1

[2] = molecular target: Pyruvate dehydrogenase kinase 1 (PDK1) protein (UniProt Q15118); assay: ITC; PDK1 protein with the lipoamide-binding domains of PDH-E2 (L1, L2), in the presence of hemistepsin A (HsA); conditions not told in the main text
Chain of Pyruvate dehydrogenase kinase 1 (PDK1) protein (Q15118 29-436): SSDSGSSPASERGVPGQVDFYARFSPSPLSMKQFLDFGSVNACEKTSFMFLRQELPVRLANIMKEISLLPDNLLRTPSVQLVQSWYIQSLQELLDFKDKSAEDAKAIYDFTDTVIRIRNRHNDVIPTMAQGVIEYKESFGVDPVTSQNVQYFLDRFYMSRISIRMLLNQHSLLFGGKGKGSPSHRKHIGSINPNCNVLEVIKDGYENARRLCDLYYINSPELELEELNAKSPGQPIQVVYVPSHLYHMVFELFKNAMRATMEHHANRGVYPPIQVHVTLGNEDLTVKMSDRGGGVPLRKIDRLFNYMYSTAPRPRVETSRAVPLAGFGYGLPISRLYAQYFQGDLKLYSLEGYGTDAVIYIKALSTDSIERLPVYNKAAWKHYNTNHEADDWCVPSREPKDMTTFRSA

[3] = molecular target: Pyruvate dehydrogenase kinase 1 (PDK1) protein (UniProt Q15118); assay: ITC; PDK1 protein with the lipoamide-binding domains of PDH-E2 (L1, L2), without HsA; conditions not told in the main text

T1 sequence (Q15118 29-436): as above

Molecule | Kd [1] [µM] | Kd [2] [µM] | Kd [3] [µM]
C=C(CO)C(=O)OC1C2C(=C)C(=O)OC2CC(=C)C2CC(O)C(=C)C21 (centres unmarked) [HsA, Hemistepsin A] | 22 |  | 
L1 lipoamide-binding domain of the PDH complex E2 subunit (PDH-E2) (domain or fragment) |  | 43.1 | 41.1
L2 lipoamide-binding domain of the PDH complex E2 subunit (PDH-E2) (domain or fragment) |  | 41 | 30
